Source: patent publication US20220265769A1 (GEISINGER HEALTH, published 2022)

Experiments:
TBX3 = target: T1, TBX3 (human, UniProt O15119 1-743, limits assumed); test: IP and immunoblot, primary human fibroblasts
T1 sequence (looked up): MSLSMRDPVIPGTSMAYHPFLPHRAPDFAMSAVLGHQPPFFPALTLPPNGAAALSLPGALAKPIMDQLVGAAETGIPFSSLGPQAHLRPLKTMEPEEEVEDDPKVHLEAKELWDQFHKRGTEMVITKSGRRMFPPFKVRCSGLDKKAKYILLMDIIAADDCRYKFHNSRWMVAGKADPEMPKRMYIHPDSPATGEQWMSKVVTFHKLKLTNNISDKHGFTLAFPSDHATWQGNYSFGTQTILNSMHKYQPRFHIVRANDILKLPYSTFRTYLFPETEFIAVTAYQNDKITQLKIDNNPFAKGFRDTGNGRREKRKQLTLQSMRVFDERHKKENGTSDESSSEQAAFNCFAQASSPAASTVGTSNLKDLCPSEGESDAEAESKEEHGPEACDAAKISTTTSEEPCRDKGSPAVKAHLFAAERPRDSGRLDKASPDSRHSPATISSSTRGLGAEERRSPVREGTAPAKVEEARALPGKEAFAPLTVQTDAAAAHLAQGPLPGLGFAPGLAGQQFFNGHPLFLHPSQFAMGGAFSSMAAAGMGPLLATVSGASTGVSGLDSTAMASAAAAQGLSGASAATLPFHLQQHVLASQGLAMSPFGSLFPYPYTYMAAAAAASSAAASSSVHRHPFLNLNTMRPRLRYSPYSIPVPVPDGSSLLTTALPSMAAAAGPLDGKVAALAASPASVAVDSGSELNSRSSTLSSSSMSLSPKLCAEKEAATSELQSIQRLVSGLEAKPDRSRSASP

EZH2 = EZH2 (human, UniProt Q15910 1-746, limits assumed); test: IP and immunoblot, T47D cells and primary human fibroblasts
EZH2, sequence (Q15910 whole entry): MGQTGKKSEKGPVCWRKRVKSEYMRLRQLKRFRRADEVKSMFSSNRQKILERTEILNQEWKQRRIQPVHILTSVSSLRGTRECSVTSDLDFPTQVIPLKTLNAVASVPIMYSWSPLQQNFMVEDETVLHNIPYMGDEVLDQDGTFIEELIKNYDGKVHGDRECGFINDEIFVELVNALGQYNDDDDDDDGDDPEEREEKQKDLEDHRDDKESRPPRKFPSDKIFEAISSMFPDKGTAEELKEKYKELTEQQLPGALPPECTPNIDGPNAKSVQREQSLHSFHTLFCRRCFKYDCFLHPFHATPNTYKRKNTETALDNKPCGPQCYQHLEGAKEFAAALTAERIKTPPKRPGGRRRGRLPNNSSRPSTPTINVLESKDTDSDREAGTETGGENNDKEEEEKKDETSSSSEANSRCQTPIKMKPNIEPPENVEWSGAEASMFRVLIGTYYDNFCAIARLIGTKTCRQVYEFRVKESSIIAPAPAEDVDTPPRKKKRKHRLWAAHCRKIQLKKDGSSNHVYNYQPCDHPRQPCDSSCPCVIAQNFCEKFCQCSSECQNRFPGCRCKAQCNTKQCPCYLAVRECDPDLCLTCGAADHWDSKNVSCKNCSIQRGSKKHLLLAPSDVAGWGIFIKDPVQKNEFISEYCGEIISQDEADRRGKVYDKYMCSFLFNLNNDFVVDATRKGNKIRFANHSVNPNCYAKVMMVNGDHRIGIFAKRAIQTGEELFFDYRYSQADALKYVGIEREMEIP

estrogen receptor (ERα) = target: T2, estrogen receptor (ERα) (human, UniProt P03372 1-595); test: IP and immunoblot, T47D, MDA-MB231 and PME cells (FIG. 14F)
T2 construct: also called ESR1
T2 sequence (looked up): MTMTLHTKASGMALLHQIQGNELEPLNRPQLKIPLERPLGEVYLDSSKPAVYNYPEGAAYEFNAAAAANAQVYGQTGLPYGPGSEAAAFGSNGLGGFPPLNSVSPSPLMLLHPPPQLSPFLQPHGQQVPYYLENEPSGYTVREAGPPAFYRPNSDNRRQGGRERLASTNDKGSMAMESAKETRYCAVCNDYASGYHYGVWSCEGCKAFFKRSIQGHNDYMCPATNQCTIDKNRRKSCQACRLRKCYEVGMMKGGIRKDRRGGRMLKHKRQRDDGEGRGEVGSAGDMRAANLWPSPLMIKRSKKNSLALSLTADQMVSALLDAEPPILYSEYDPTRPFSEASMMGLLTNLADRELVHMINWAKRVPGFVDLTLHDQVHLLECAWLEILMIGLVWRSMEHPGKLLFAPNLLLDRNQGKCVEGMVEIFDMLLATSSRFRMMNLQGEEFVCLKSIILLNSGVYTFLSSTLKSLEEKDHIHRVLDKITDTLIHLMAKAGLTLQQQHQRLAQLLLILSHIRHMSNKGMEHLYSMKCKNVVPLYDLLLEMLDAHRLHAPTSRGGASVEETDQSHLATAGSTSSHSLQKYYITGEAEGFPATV

HCF-1 = HCF-1 (human, UniProt P51610 2-2035, limits assumed); test: as above
HCF-1, sequence (P51610 2-2035 limits assumed): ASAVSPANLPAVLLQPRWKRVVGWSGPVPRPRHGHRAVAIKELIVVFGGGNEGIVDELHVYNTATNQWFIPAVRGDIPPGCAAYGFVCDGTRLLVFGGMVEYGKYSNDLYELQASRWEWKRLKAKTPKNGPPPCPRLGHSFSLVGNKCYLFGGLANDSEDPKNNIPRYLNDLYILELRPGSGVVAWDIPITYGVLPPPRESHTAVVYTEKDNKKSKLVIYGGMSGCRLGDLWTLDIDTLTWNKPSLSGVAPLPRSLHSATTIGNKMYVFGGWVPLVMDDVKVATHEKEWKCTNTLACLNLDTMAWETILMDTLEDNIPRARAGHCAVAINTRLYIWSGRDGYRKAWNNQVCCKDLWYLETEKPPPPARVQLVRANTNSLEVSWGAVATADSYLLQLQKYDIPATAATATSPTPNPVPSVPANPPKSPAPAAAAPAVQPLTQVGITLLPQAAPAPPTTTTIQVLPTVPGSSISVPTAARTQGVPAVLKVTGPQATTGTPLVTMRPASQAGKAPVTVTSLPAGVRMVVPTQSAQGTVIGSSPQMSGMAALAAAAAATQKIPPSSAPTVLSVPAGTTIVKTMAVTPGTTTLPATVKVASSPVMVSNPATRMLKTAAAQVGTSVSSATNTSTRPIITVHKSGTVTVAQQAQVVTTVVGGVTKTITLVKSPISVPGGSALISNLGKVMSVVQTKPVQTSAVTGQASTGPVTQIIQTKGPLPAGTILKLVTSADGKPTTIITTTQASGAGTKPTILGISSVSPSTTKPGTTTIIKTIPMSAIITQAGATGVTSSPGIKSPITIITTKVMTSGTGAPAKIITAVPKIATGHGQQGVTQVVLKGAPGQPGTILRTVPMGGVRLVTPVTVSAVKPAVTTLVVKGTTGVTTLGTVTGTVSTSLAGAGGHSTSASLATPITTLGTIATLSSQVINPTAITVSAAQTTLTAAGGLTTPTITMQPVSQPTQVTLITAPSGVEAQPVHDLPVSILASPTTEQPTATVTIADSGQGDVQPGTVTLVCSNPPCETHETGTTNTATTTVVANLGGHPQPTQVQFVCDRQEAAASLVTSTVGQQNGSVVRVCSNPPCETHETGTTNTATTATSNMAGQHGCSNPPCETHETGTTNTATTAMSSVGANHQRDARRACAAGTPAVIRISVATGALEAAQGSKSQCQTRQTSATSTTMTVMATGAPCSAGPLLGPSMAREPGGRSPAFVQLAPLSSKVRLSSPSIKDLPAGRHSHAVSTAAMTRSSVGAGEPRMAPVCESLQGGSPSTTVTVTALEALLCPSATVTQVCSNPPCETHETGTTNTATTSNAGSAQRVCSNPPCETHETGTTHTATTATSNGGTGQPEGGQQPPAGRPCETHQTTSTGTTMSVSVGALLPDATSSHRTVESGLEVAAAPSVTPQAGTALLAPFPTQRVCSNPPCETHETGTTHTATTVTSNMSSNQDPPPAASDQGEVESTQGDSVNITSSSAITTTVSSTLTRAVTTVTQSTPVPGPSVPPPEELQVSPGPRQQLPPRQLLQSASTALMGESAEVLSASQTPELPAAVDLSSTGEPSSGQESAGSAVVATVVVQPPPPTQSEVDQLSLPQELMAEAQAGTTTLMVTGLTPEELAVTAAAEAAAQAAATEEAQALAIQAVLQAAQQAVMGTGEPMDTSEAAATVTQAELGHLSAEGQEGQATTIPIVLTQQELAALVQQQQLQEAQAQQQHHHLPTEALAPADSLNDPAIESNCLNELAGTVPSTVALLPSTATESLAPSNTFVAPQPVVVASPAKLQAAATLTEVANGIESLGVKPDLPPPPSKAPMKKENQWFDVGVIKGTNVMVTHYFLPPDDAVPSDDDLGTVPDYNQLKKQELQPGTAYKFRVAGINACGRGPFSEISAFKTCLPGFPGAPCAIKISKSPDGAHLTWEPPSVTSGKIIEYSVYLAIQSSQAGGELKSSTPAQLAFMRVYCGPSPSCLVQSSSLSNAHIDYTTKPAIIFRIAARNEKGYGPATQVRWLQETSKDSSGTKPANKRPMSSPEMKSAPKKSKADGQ

- binding result (TBX3): binds
- binding result (EZH2): binds
- binding result (estrogen receptor (ERα)): no binding
- binding result (HCF-1): no binding
B1: CAPERα (Coactivator of AP1 and Estrogen Receptor) (other, human, UniProt Q14498 2-530, looked up)
chain: ADDIDIEAMLEAPYKKDENKLSSANGHEERSKKRKKSKSRSRSHERKRSKSKERKRSRDRERKKSKSRERKRSRSKERRRSRSRSRDRRFRGRYRSPYSGPKFNSAIRGKIGLPHSIKLSRRRSRSKSPFRKDKSPVREPIDNLTPEERDARTVFCMQLAARIRPRDLEEFFSTVGKVRDVRMISDRNSRRSKGIAYVEFVDVSSVPLAIGLTGQRVLGVPIIVQASQAEKNRAAAMANNLQKGSAGPMRLYVGSLHFNITEDMLRGIFEPFGRIESIQLMMDSETGRSKGYGFITFSDSECAKKALEQLNGFELAGRPMKVGHVTERTDASSASSFLDSDELERTGIDLGTTGRLQLMARLAEGTGLQIPPAAQQALQMSGSLAFGAVAEFSFVIDLQTRLSQQTEASALAAAASVQPLATQCFQLSNMFNPQTEEEVGWDTEIKDDVIEECNKHGGVIHIYVDKNSAQGNVYVKCPSIAAAIAAVNALHGRWFAGKMITAAYVPLPTYHNLFPDSMTATQLLVPSRR
notes: Endogenous protein immunoprecipitated or blotted from Dignam lysates; also called RBM39
